Article PMC8921914

Experiments:
FcRn = FcRn (UniProt P55899); experiment: SPR
FcγRI = FcγRI (UniProt P12314); experiment: SPR
Chain of UniProt P12314 (P12314 16-374): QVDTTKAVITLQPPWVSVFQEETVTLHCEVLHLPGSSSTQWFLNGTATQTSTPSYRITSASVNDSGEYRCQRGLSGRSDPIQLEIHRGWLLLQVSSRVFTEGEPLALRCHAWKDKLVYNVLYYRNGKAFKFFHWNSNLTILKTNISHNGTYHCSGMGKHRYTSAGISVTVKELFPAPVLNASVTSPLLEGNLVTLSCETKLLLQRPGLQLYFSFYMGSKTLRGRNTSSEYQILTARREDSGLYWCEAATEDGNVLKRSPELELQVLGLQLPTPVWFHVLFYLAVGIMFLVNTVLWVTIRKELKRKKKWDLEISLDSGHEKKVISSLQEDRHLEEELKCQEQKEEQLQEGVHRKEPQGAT

Chain of UniProt P55899 (P55899 whole entry, looked up, tested part not stated): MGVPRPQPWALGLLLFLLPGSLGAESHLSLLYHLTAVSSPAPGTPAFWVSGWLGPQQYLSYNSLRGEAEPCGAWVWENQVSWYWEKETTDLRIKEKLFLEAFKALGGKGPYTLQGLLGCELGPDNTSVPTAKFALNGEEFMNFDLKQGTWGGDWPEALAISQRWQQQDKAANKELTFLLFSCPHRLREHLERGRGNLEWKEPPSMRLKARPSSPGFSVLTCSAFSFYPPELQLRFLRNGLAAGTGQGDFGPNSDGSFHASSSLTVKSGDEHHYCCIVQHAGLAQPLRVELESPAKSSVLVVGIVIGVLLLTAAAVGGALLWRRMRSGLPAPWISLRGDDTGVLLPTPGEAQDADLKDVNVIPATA

Kd (FcRn): > 1000 µM | Kd (FcγRI): > 1000 µM
Substance: CLN-049 (bispecific antibody)
